Test results reported in FireProtDB (doi:10.1006/jmbi.2001.4993).

Conditions: Equus caballus, pH 7, 10 °C, GdnHCl, sodium dithionite 0.5-2 mM, reversible: yes

Sequence of Cytochrome c wild type, P00004 (P00004 whole entry): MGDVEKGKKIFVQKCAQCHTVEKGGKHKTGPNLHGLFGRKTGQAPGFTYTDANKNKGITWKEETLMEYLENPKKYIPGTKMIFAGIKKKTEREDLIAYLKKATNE

For Cytochrome c wild type, P00004, the “denaturant midpoint (higher = more stable)” value (“denaturant midpoint” for short) (Absorbance) was 5.1 M, the unfolding free energy (Absorbance) was 18.8 kcal/mol and the “denaturant midpoint” value (Absorbance, transition: 3) was 5.01 M. For the same substance, the “denaturant midpoint” value (Fluorescence) was 5.1 M, the unfolding free energy (Fluorescence) was 18.8 kcal/mol and the “denaturant midpoint” value (Fluorescence, transition: 3) was 5.02 M.
